Results from patent US20230118517A1, “METHODS OF TREATING MULTIPLE MYELOMA” (Seagen Inc., priority 2020, published 2023).
“And” between values parts separate entries of the source, which are not always exact repeats. Identical values can stand only once. Like-named read-outs stand apart in the source and are kept apart here.

How the values were obtained:
BCMA on MM1R cells = molecular target: T1, BCMA on MM1R cells (Homo sapiens, UniProt Q02223); assay: In vitro cell binding capacity assay (free SEA-BCMA in patient serum); format: cell-based; details: for patients in whom high levels of free SEA-BCMA were maintained throughout the dosing period: Q2wk
T1 construct: endogenous in cells; host or cells: MM1R cells
T1 sequence (Q02223 1-184): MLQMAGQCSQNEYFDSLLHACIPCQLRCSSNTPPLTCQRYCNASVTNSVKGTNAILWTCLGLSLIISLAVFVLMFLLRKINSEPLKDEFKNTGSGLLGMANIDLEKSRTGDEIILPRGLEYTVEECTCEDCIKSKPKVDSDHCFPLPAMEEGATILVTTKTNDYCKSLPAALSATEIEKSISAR
Excerpt: An in vitro cell binding capacity assay was developed to complement serum concentration measurements of total SEA-BCMA, total soluble BCMA, and flow cytometric evaluation of free, unbound BCMA and total BCMA on plasma cells from the bone marrow. The assay measures the ability of free, unbound SEA-BCMA (e.g. not bound by sBCMA) from patient serum to bind and saturate BCMA in-vitro on a BCMA positive cell line. Titrations of known SEA-BCMA concentrations allow for an evaluation of the concentrations of free, unbound SEA-BCMA in patient serum. Together with a measurement of the percent-bound BCMA on the cell surface, this provides a direct indication of the ability of dosed SEA-BCMA to bind and saturate cell membrane-bound BCMA.
After incubation at room temperature for ½ hour, the cells were washed and stained with a saturating amount of SEA-BCMA conjugated to a fluorescent dye. After incubation at 4° C. in the dark for ½ hr, the cells were washed and fixed. Stained cells were analyzed on an Invitrogen Attune NxT flow cytometer. FlowJo V10 software was used to gate on viable cells and record the median fluorescent intensity (MFI). GraphPad Prism 8 was used for analysis.
The recorded MFI was normalized as follows. Normalization to 0% binding is the MFI from a control well incubated in healthy human serum with no SEA-BCMA present. Normalization to 100% binding is the MFI from a control well incubated in healthy human serum spiked with SEA-BCMA to a concentration 200 μg/mL. A titration of SEA-BCMA in healthy human serum may be used to generate a standard curve using the known amounts of SEA-BCMA.
The maintenance of free SEA-BCMA in the patient serum that are able to bind in vitro to the cell-surface BCMA of a BCMA-expressing cell line was investigated.

[1] = molecular target: T2, membrane BCMA on malignant plasma cells (Homo sapiens, UniProt Q02223); assay: Flow cytometric assessment of BCMA expression and engagement on MM cells in bone marrow; format: in vivo
T2 construct: from tissue; host or cells: multiple myeloma cells in patients' bone marrow aspirates
T2 sequence (Q02223 1-184): T1 sequence (Q02223 1-184)
Experimental: A Flow Cytometric Assay was designed to identify multiple myeloma cells in patients bone marrow aspirate, and measure levels of BCMA (unbound and total) and APRIL on the MM cell surface.
Bone marrow aspirates were collected from enrolled patients at Baseline and on-treatment (C2D22, confirmation of CR, per standard of care), and tested by flow cytometry with one day of collection in most cases.
MM cells detection was performed using extracellular CD138, CD38, CD45, CD56 and CD28 staining and intracellular kappa and lambda light chains staining. […] Detection of APRIL, most probably bound to BCMA on the MM cell surface, is also performed.
Each sample was split into 3 aliquots: one aliquot stained using only the MM gating antigens but no anti-BCMA or anti-APRIL antibodies (gating control), one aliquot stained with MM Gating antigens and the two labeled anti-BCMA antibodies, and one incubated for 2 hours at 37 C with spiked BCMA (100 ug/mL) before staining with MM gating antigens+APRIL+labeled non-competing anti-BCMA 16.16 antibody. After staining, washing and fixation in 2% paraformaldyde, cells were analyzed on a BD FACScanto cytometer, with up to 2×10^6 leukocytes acquired. Data analysis was performed with FACS Diva (Q2) and FlowJo (Seattle Genetics).

[2] = Pharmacokinetic analysis of SEA-BCMA serum concentration in patients
Molp-8 MM target cells = assay: ADCC 51Cr release assay with NK effector cells; format: cell-based; details: Molp-8, with vs without 0.2 μM Nirogacestat, NK cells 10:1, 4 h
Experimental: Whether the enhanced FcγRIII signaling translated to increased lysis of MM target cells by SEA-BCMA was determined. Molp-8 MM target cells were incubated with and without 0.2 μM Nirogacestat (purchased from SelleckChem) for 24 hrs. Cells were then Na2 [^51Cr] O4 labeled and added to titrations of SEA-BCMA, or isotype antibody control. Effector cells, NK cells enriched from normal donor PBMC, were added at an effector-to-target cell ratio of 10:1 (50,000:5000). Donor NK cells were of the high affinity FcγRIII V/V genotype. The combination of antibodies, NK cells and target cells were incubated for 4 h at 37° C. with and without Nirogacestat. The radioactivity released into the culture supernatant of lysed target cells was then measured and the percent specific cell lysis calculated. […] This is the primary of mechanism of action of SEA-BCMA and translates to specific enhanced anti-MM lysis. It is expected that this will translate to improvements in anti-MM activity in the clinic when SEA-BCMA is combined with GSIs.

[3] = among 20 total patients treated

SEA-BCMA: non-fucosylated monoclonal anti-BCMA antibody having heavy chain SEQ ID NO: 13 and light chain SEQ ID NO: 15
patients in whom high levels of free SEA-BCMA were maintained throughout the dosing period (BCMA on MM1R cells; 800 mg (or equivalent)): 6/8 and 6 out of 8
patients in whom high levels of free SEA-BCMA were maintained throughout the dosing period (BCMA on MM1R cells; 1600 mg): 7/7 and all patients
maintenance of >95% bound BCMA in vitro through the dosing interval (BCMA on MM1R cells; serum of patients dosed 100 mg-400 mg, two doses 14 days apart): not able to maintain >95% bound BCMA in vitro
saturation of membrane BCMA ([1]; 1600 mg): complete saturation was observed in at least one patient
unbound membrane BCMA on malignant plasma cells ([1]; bone marrow of patients treated in dose escalation): reduced levels of unbound membrane BCMA
saturation of membrane BCMA ([1]; evaluable patients dosed at 800 mg and 1600 mg): Incomplete saturation of membrane BCMA
time at which PK reaches steady state ([2]; Q2W dosing): steady state at cycle 3
accumulation at steady state ([2]; after Q2W dosing): approximately 70%
safety (1600 mg per dose once every 2 weeks): found to be safe
safety profile (20 patients, 100-1600 mg): well-tolerated with no severe adverse effects
adverse event (Patient A, 1600 mg every two weeks, second cycle): Grade 2 maculopapular rash
dose-limiting toxicity (DLT) (Grade 3 infusion-related reactions) [3]: 1 case
total serious infusion-related reactions [3]: 2
safety (combination with dexamethasone, SEA-BCMA Day 1 and 15, dexamethasone Day 1, 8, 15, 22 of 28-day cycle): found to be safe
delayed-onset infusion-related reactions (IRRs) (dose escalation cohort): no instances of delayed-onset infusion-related reactions
maximum tolerated dose (MTD) (human, in vivo): completed without exceeding MTD
safety (intensive dosing: 1600 mg q1wk for 8 doses, then once every two weeks): intensive dosing was safe
safety and tolerability (patient, 200 mg escalated to 1600 mg every two weeks, cycles 1-10): tolerated the therapy well without any adverse effects related to SEA-BCMA
ADCC (specific cell lysis) (Molp-8 MM target cells): Increased ADCC
